Results on 3 substances are retold here after publication PMC8649222.

The target of one assay is IL-6:sIL-6R complex (UniProt P05231).
Assay [1] deals with Hyper-IL-6 (Homo sapiens) (UniProt P05231). Particulars: cited from earlier work.
The next assay addresses IL-11:sIL-11R complex (UniProt P20809).

Chain of sgp130Fc (P40189 23-619): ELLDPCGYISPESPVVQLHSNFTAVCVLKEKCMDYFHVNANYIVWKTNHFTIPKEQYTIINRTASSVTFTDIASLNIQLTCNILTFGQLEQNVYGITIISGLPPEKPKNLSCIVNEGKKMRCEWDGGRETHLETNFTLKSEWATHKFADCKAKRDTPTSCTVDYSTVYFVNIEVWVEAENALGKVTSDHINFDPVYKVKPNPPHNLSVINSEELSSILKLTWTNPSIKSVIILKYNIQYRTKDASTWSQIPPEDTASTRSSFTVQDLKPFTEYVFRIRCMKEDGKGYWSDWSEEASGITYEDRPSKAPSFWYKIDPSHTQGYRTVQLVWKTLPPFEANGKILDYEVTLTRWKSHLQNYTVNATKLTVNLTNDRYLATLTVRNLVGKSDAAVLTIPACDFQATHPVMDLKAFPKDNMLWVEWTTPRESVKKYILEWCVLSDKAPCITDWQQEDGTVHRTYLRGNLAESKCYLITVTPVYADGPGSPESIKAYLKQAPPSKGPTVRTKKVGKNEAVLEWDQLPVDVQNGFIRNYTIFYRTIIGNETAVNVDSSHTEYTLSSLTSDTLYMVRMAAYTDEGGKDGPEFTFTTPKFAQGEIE
Chain of IL-6:sIL-6R complex (P05231 30-212, chain 1 of 2): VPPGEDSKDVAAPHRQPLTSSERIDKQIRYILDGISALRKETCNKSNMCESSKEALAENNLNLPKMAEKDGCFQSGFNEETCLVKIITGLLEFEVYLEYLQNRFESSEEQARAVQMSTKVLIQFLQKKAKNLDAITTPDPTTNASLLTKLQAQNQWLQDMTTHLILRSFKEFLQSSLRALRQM
Chain of IL-6:sIL-6R complex (P08887 20-365, chain 2 of 2, further chain): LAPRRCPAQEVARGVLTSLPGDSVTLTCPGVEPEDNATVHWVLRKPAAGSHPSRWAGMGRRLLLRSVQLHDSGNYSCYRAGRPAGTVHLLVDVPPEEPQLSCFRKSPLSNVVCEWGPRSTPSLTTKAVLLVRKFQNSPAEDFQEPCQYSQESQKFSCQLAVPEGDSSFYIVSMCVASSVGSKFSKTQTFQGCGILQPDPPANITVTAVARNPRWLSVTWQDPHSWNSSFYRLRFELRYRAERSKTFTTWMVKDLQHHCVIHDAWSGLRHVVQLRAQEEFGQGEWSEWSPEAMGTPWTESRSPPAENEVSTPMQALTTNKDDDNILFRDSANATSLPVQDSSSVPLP
Chain of IL-11:sIL-11R complex (P20809 22-199, chain 1 of 2): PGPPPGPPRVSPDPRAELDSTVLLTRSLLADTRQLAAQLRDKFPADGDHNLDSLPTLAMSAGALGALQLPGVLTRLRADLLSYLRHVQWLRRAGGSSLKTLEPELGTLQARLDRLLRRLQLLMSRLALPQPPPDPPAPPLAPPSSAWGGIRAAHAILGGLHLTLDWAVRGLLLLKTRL
Chain of IL-11:sIL-11R complex (Q14626 24-370, chain 2 of 2, further chain): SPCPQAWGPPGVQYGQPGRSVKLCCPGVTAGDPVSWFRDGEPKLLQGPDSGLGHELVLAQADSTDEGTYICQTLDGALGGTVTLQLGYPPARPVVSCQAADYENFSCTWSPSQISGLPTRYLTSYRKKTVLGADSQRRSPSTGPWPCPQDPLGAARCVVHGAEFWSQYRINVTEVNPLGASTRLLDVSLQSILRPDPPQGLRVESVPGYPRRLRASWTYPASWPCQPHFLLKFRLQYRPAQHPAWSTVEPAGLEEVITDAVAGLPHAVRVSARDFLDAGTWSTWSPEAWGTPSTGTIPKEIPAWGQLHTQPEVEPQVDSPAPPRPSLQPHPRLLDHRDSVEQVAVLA
Chain of sgp130^R281QFc (P40189 23-619 R281Q): as the sequence (P40189 23-619) above, with R259Q counted along it
Chain of Hyper-IL-6 (Homo sapiens) (P05231 30-212, chain 1 of 2): as the sequence (P05231 30-212, chain 1 of 2) above
Chain of Hyper-IL-6 (Homo sapiens) (partner, as listed by the source, chain 2 of 2): as the sequence (P08887 20-365, chain 2 of 2, further chain) above

As for “sgp130^R281QFc (from UniProt P40189 23-619) (Fc fusion)”, in the assay with IL-6:sIL-6R complex, the IC50 of inhibition of sIL-6R/IL-6 (50/100 ng/ml) induced proliferation of Ba/F3-gp130 cells (blocks the complex from membrane-bound gp130) worked out at 780 pM.
On to sgp130FlyFc ECD (from UniProt P40189), for which, in assay [1], the dissociation constant Kd was 122 pM.
In the case of “sgp130Fc (from UniProt P40189 23-619) (Fc fusion)”, in the assay with IL-6:sIL-6R complex, the IC50 of inhibition of IL-6/sIL-6R (50/100 ng/ml) induced proliferation of Ba/F3-gp130 cells (blocks the complex from membrane-bound gp130) came out at 450 pM. The substance further registered an IC50 of inhibition of sIL-11R/IL-11 (10/100 ng/ml) induced proliferation of Ba/F3-gp130 cells (blocks the complex from membrane-bound gp130) with IL-11:sIL-11R complex of 290 pM.
